Test results taken from patent publication US20160229903.

How the values were obtained:
[1] = system: VWF-052 (VWF D′D3-Fc with non-cleavable 48 amino acid long GS linker)
[2] = system: VWF-055 (VWF D′D3-Fc with 34 amino acid long little a2 linker)
Chain of VWF-055 (VWF D′D3-Fc with 34 amino acid long little a2 linker) (chain, as listed by the source): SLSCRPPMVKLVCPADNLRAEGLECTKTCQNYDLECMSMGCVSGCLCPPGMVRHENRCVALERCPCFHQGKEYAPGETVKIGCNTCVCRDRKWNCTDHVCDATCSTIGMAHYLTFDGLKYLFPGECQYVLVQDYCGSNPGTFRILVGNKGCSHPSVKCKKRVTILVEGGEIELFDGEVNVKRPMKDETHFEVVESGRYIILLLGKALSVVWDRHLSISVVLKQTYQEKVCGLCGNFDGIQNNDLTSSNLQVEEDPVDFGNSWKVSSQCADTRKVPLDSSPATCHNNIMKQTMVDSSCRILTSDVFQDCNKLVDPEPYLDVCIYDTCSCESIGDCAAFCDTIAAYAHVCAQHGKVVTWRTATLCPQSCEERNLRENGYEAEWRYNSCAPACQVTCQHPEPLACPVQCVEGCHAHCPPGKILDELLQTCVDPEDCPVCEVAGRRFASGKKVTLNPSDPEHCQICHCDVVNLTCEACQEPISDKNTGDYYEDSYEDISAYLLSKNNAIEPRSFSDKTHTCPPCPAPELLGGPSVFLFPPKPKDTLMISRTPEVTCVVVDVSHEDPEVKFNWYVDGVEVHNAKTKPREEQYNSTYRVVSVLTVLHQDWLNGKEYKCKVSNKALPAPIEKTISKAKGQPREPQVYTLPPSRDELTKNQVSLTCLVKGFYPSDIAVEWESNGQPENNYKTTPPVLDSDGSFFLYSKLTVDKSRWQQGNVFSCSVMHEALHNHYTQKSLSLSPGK

Chain of VWF-052 (VWF D′D3-Fc with non-cleavable 48 amino acid long GS linker) (chain, as listed by the source): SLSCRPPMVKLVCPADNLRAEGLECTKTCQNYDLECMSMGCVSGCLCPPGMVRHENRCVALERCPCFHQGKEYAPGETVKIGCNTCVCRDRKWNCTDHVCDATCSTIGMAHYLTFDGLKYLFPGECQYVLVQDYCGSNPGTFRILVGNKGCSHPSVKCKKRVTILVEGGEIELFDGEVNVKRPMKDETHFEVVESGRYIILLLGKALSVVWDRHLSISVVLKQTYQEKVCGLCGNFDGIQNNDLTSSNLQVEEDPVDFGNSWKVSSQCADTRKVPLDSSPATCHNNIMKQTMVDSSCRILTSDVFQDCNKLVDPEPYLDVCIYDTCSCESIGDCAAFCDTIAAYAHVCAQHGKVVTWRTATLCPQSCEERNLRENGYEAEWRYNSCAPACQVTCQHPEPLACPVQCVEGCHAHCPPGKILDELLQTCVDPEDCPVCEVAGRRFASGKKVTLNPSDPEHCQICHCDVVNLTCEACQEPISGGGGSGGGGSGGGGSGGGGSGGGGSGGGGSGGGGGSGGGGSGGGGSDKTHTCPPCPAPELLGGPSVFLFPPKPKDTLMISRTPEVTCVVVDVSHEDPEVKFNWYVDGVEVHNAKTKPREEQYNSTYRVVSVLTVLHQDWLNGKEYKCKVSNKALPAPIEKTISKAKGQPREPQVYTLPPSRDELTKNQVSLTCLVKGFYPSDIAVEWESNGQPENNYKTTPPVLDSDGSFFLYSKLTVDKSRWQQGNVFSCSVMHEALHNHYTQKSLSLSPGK

For human alpha-thrombin, the “thrombin cleavage (Biacore, release of D′D3 from captured construct)” value [1] was “as expected is not cleaved by thrombin” and the “thrombin cleavage (Biacore, release of D′D3 from captured construct)” value [2] was “displayed similar thrombin cleavage as VWF-039 construct”.
